Patent US20260152562A1

Key:
Experiment in all cases: cell-based or functional assay
[1] = biological target: Anti-EGFR Activatable Antibody C225v5-3954-4008 (linker form not stated)
[2] = biological target: Anti-EGFR Activatable Antibody c225v5-3954-2001
[3] = biological target: Anti-EGFR Activatable Antibody c225v5-3954-3001
[4] = biological target: Anti-EGFR Activatable Antibody c225v5-3954-5001; as to Cleavability (%) MMP14: test concentration or dose not given here; as to Cleavability (%) Matriptase: test concentration or dose not given here
[5] = biological target: Anti-EGFR Activatable Antibody c225v5-3954-5002; as to Cleavability (%) Neutrophil Elastase: test concentration or dose not given here
[6] = biological target: Anti-EGFR Activatable Antibody c225v5-3954-5003; as to Cleavability (%) MMP14: test concentration or dose not given here
[7] = biological target: Anti-EGFR Activatable Antibody c225v5-3954-5004
[8] = biological target: Anti-EGFR Activatable Antibody c225v5-3954-5005
[9] = biological target: Anti-EGFR Activatable Antibody c225v5-3954-5006; as to Cleavability (%) MMP14: test concentration or dose not given here; as to Cleavability (%) Neutrophil Elastase: test concentration or dose not given here
[10] = biological target: Anti-EGFR Activatable Antibody c225v5-3954-5007; as to Cleavability (%) Matriptase: test concentration or dose not given here; as to Cleavability (%) Neutrophil Elastase: test concentration or dose not given here
[11] = biological target: Anti-EGFR Activatable Antibody c225v5-3954-5008; as to Cleavability (%) Matriptase: test concentration or dose not given here; as to Cleavability (%) Neutrophil Elastase: test concentration or dose not given here
[12] = biological target: Anti-EGFR Activatable Antibody c225v5-3954-5009
[13] = biological target: Anti-EGFR Activatable Antibody c225v5-3954-5010
[14] = biological target: Anti-EGFR Activatable Antibody c225v5-3954-5011
[15] = biological target: Anti-EGFR Activatable Antibody c225v5-3954-5012
[16] = biological target: Anti-EGFR Activatable Antibody c225v5-3954-5013; as to Cleavability (%) Matriptase: test concentration or dose not given here
[17] = biological target: Anti-EGFR Activatable Antibody with substrate 4001 (linker form not stated); as to Cleavability (%) MMP14: test concentration or dose not given here
[18] = biological target: Anti-EGFR Activatable Antibody c225v5-3954-4001LL; as to MMP14 Cleavability (%): test concentration or dose not given here
[19] = biological target: Anti-EGFR Activatable Antibody c225v5-3954-4001SL
[20] = biological target: Anti-EGFR Activatable Antibody c225v5-3954-4002SL
[21] = biological target: Anti-EGFR Activatable Antibody c225v5-3954-4003SL
[22] = biological target: Anti-EGFR Activatable Antibody c225v5-3954-4004LL
[23] = biological target: Anti-EGFR Activatable Antibody c225v5-3954-4005SL; as to MMP14 Cleavability (%): test concentration or dose not given here
[24] = biological target: Anti-EGFR Activatable Antibody c225v5-3954-4006LL; as to MMP14 Cleavability (%): test concentration or dose not given here
[25] = biological target: Anti-EGFR Activatable Antibody c225v5-3954-4006SL
[26] = biological target: Anti-EGFR Activatable Antibody c225v5-3954-4007SL
[27] = biological target: Anti-EGFR Activatable Antibody c225v5-3954-4008LL
[28] = biological target: Anti-EGFR Activatable Antibody c225v5-3954-4009SL
[29] = biological target: Anti-EGFR Activatable Antibody c225v5-3954-4010SL
[30] = biological target: Anti-EGFR Activatable Antibody c225v5-3954-4011SL
[31] = biological target: Anti-EGFR Activatable Antibody c225v5-3954-4012SL
[32] = biological target: Anti-EGFR Activatable Antibody c225v5-3954-4014SL; as to MMP14 Cleavability (%): test concentration or dose not given here
[33] = biological target: Anti-EGFR Activatable Antibody c225v5-3954-4015LL

recombinant MMP2, sequence (P08253 110-660 limits assumed): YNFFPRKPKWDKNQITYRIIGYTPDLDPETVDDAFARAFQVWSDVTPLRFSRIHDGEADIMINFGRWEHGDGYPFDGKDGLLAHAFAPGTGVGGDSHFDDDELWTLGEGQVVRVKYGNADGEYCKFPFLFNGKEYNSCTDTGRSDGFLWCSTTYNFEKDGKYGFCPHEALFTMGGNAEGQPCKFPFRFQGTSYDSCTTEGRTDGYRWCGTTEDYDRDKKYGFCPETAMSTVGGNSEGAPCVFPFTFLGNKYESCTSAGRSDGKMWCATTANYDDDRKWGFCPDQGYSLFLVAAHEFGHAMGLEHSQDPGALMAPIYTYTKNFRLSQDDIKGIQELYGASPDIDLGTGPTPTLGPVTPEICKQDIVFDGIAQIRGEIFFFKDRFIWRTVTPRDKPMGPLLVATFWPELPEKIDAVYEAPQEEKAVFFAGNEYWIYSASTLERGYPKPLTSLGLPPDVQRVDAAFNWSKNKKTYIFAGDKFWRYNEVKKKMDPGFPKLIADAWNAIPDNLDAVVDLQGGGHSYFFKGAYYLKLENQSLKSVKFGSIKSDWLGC
recombinant neutrophil elastase, sequence (P08246 30-267 limits assumed): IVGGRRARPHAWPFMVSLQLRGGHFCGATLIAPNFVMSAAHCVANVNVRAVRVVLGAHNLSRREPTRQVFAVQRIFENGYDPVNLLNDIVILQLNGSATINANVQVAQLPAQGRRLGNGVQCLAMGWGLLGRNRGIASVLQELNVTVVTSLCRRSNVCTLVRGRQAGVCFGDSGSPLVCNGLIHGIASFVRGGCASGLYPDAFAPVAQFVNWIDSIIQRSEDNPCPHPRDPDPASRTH
recombinant matriptase, sequence (Q9Y5Y6 615-855 limits assumed): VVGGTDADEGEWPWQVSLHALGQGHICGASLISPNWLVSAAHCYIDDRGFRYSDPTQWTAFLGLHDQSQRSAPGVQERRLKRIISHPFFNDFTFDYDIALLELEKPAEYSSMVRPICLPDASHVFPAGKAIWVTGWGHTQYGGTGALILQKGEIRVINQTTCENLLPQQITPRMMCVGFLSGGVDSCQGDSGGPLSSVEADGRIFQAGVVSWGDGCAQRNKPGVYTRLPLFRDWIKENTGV

In the case of “recombinant matriptase (from UniProt Q9Y5Y6 615-855) (enzyme)”, the Cleavability (%) Matriptase [1] is reported as 40%, the Kcat/Km (M^-1 s^-1) Matriptase [1] is reported as 476 M⁻¹ s⁻¹ and the Cleavability (%) Matriptase [2] is reported as 53%. The Kcat/Km (M^-1 s^-1) Matriptase [2] was 2550 M⁻¹ s⁻¹, the Kcat/Km (M^-1 s^-1) Matriptase [3] was 5350 M⁻¹ s⁻¹ and the Cleavability (%) Matriptase [4] was 100%. For the same substance, the Cleavability (%) Matriptase [5] was 100%, the Cleavability (%) Matriptase [6] was 99% and the Cleavability (%) Matriptase [7] was 75%. The Cleavability (%) Matriptase [8] was 6%, the Cleavability (%) Matriptase [9] was 100% and the Kcat/Km (M^-1 s^-1) Matriptase [9] was 5370 M⁻¹ s⁻¹. For the same substance, the Cleavability (%) Matriptase [10] was 100%, the Kcat/Km (M^-1 s^-1) Matriptase [10] was 27200 M⁻¹ s⁻¹ and the Cleavability (%) Matriptase [11] was 98%. For the same substance, the Cleavability (%) Matriptase [12] was 100%, the Cleavability (%) Matriptase [13] was 0% and the Cleavability (%) Matriptase [14] was 80%. The Kcat/Km (M^-1 s^-1) Matriptase [14] was 1430 M⁻¹ s⁻¹, the Cleavability (%) Matriptase [15] was 0% and the Cleavability (%) Matriptase [16] was 0%. It also gave a Kcat/Km (M^-1 s^-1) Matriptase [16] of 0 M⁻¹ s⁻¹, a Cleavability (%) Matriptase [17] of 0% and a Kcat/Km (M^-1 s^-1) Matriptase [17] of 0 M⁻¹ s⁻¹.

For “recombinant MMP14 (from UniProt P50281 112-538) (enzyme)”, the Cleavability (%) MMP14 [1] was 6%, the Kcat/Km (M^-1 s^-1) MMP14 [1] was 230 M⁻¹ s⁻¹ and the Cleavability (%) MMP14 [2] was 58%. For the same substance, the Kcat/Km (M^-1 s^-1) MMP14 [2] was 6330 M⁻¹ s⁻¹, the Kcat/Km (M^-1 s^-1) MMP14 [3] was 17000 M⁻¹ s⁻¹ and the MMP14 Cleavability (%) [18] was 100%. For the same substance, the MMP14 Cleavability (%) [19] was 96.5%, the MMP14 Cleavability (%) [20] was 85.9% and the MMP14 Cleavability (%) [21] was 53.1%. For the same substance, the MMP14 Cleavability (%) [22] was 46.2%, the MMP14 Cleavability (%) [23] was 24.4% and the MMP14 Cleavability (%) [24] was 84.2%. It also gave an MMP14 Cleavability (%) [25] of 85.7%, an MMP14 Cleavability (%) [26] of 0% and an MMP14 Cleavability (%) [27] of 0%. The MMP14 Cleavability (%) [28] was 0%, the MMP14 Cleavability (%) [29] was 0% and the MMP14 Cleavability (%) [30] was 9.9%. The MMP14 Cleavability (%) [31] was 0%, the MMP14 Cleavability (%) [32] was 30.5% and the MMP14 Cleavability (%) [33] was 0%. It also gave a Cleavability (%) MMP14 [4] of 76%, a Cleavability (%) MMP14 [5] of 58% and a Cleavability (%) MMP14 [6] of 20%. For the same substance, the Cleavability (%) MMP14 [7] was 19%, the Cleavability (%) MMP14 [8] was 34% and the Cleavability (%) MMP14 [9] was 6%. The Kcat/Km (M^-1 s^-1) MMP14 [9] was 564 M⁻¹ s⁻¹, the Cleavability (%) MMP14 [10] was 90% and the Kcat/Km (M^-1 s^-1) MMP14 [10] was 9250 M⁻¹ s⁻¹. For the same substance, the Cleavability (%) MMP14 [11] was 55%, the Cleavability (%) MMP14 [12] was 9% and the Cleavability (%) MMP14 [13] was 11%. For the same substance, the Cleavability (%) MMP14 [14] was 7%, the Kcat/Km (M^-1 s^-1) MMP14 [14] was 444 M⁻¹ s⁻¹ and the Cleavability (%) MMP14 [15] was 72%. The Cleavability (%) MMP14 [16] was 78%, the Kcat/Km (M^-1 s^-1) MMP14 [16] was 7770 M⁻¹ s⁻¹ and the Cleavability (%) MMP14 [17] was 77%. For the same substance, the Kcat/Km (M^-1 s^-1) MMP14 [17] was 6010 M⁻¹ s⁻¹.

Substance “recombinant neutrophil elastase (from UniProt P08246 30-267) (enzyme)” has a Cleavability (%) Neutrophil Elastase [1] of 28%, a Cleavability (%) Neutrophil Elastase [2] of 18% and a Kcat/Km (M^-1 s^-1) Neutrophil Elastase [2] of 3170 M⁻¹ s⁻¹. The Cleavability (%) Neutrophil Elastase [3] was 52%, the Kcat/Km (M^-1 s^-1) Neutrophil Elastase [3] was 19100 M⁻¹ s⁻¹ and the Cleavability (%) Neutrophil Elastase [4] was 88%. It also gave a Cleavability (%) Neutrophil Elastase [5] of 67%, a Cleavability (%) Neutrophil Elastase [6] of 77% and a Cleavability (%) Neutrophil Elastase [7] of 84%. It also gave a Cleavability (%) Neutrophil Elastase [8] of 81%, a Cleavability (%) Neutrophil Elastase [9] of 30% and a Cleavability (%) Neutrophil Elastase [10] of 74%. The Kcat/Km (M^-1 s^-1) Neutrophil Elastase [10] was 24200 M⁻¹ s⁻¹, the Cleavability (%) Neutrophil Elastase [11] was 66% and the Cleavability (%) Neutrophil Elastase [12] was 31%. It also gave a Cleavability (%) Neutrophil Elastase [13] of 100%, a Cleavability (%) Neutrophil Elastase [14] of 100% and a Kcat/Km (M^-1 s^-1) Neutrophil Elastase [14] of 665000 M⁻¹ s⁻¹. For the same substance, the Cleavability (%) Neutrophil Elastase [15] was 55%, the Cleavability (%) Neutrophil Elastase [16] was 56% and the Cleavability (%) Neutrophil Elastase [17] was 37%.

“recombinant legumain (from UniProt Q99538 18-323) (enzyme)” showed a Cleavability (%) Legumain [1] of 0%, a Cleavability (%) Legumain [2] of 5% and a Cleavability (%) Legumain [3] of 0%. The Cleavability (%) Legumain [4] was 0%, the Cleavability (%) Legumain [5] was 21% and the Cleavability (%) Legumain [6] was 0%. For the same substance, the Cleavability (%) Legumain [7] was 27%, the Cleavability (%) Legumain [8] was 0% and the Cleavability (%) Legumain [9] was 0%. It also gave a Cleavability (%) Legumain [10] of 0%, a Cleavability (%) Legumain [11] of 0% and a Cleavability (%) Legumain [12] of 0%. For the same substance, the Cleavability (%) Legumain [13] was 0%, the Cleavability (%) Legumain [14] was 0% and the Cleavability (%) Legumain [15] was 7%. For the same substance, the Cleavability (%) Legumain [16] was 9% and the Cleavability (%) Legumain [17] was 0%.

“recombinant MMP2 (from UniProt P08253 110-660) (enzyme)” gave a Kcat/Km (M^-1 s^-1) MMP2 [1] of 13000 M⁻¹ s⁻¹, a Kcat/Km (M^-1 s^-1) MMP2 [2] of 13200 M⁻¹ s⁻¹ and a Kcat/Km (M^-1 s^-1) MMP2 [3] of 310000 M⁻¹ s⁻¹. The Kcat/Km (M^-1 s^-1) MMP2 [9] was 36900 M⁻¹ s⁻¹, the Kcat/Km (M^-1 s^-1) MMP2 [10] was 98300 M⁻¹ s⁻¹ and the Kcat/Km (M^-1 s^-1) MMP2 [14] was 3380 M⁻¹ s⁻¹. For the same substance, the Kcat/Km (M^-1 s^-1) MMP2 [16] was 76500 M⁻¹ s⁻¹ and the Kcat/Km (M^-1 s^-1) MMP2 [17] was 57600 M⁻¹ s⁻¹.

“recombinant MMP9 (from UniProt P14780 107-707) (enzyme)” was tested, and the Cleavability (%) MMP9 [1] was 100%, the Kcat/Km (M^-1 s^-1) MMP9 [1] was 18700 M⁻¹ s⁻¹ and the Cleavability (%) MMP9 [2] was 22%. The Kcat/Km (M^-1 s^-1) MMP9 [2] was 394 M⁻¹ s⁻¹, the Kcat/Km (M^-1 s^-1) MMP9 [3] was 50500 M⁻¹ s⁻¹ and the MMP9 Cleavability (%) [18] was 100%. For the same substance, the MMP9 Cleavability (%) [19] was 94.5%, the MMP9 Cleavability (%) [20] was 87.5% and the MMP9 Cleavability (%) [21] was 6%. It also gave an MMP9 Cleavability (%) [22] of 29.8%, an MMP9 Cleavability (%) [23] of 70.5% and an MMP9 Cleavability (%) [24] of 90.8%. The MMP9 Cleavability (%) [25] was 92.9%, the MMP9 Cleavability (%) [26] was 69.5% and the MMP9 Cleavability (%) [27] was 55.2%. It also gave an MMP9 Cleavability (%) [28] of 22.1%, an MMP9 Cleavability (%) [29] of 18% and an MMP9 Cleavability (%) [30] of 78.8%. It also gave an MMP9 Cleavability (%) [31] of 56.5%, an MMP9 Cleavability (%) [32] of 0% and an MMP9 Cleavability (%) [33] of 90%. The Cleavability (%) MMP9 [4] was 76%, the Cleavability (%) MMP9 [5] was 37% and the Cleavability (%) MMP9 [6] was 100%. It also gave a Cleavability (%) MMP9 [7] of 86%, a Cleavability (%) MMP9 [8] of 72% and a Cleavability (%) MMP9 [9] of 81%. For the same substance, the Kcat/Km (M^-1 s^-1) MMP9 [9] was 33900 M⁻¹ s⁻¹, the Cleavability (%) MMP9 [10] was 77% and the Kcat/Km (M^-1 s^-1) MMP9 [10] was 25300 M⁻¹ s⁻¹. It also gave a Cleavability (%) MMP9 [11] of 100%, a Cleavability (%) MMP9 [12] of 78% and a Cleavability (%) MMP9 [13] of 0%. It also gave a Cleavability (%) MMP9 [14] of 55%, a Kcat/Km (M^-1 s^-1) MMP9 [14] of 4180 M⁻¹ s⁻¹ and a Cleavability (%) MMP9 [15] of 52%. The Cleavability (%) MMP9 [16] was 62%, the Kcat/Km (M^-1 s^-1) MMP9 [16] was 10400 M⁻¹ s⁻¹ and the Cleavability (%) MMP9 [17] was 100%. For the same substance, the Kcat/Km (M^-1 s^-1) MMP9 [17] was 8840 M⁻¹ s⁻¹.
